This is an account of results in a protein production outcome set (Wang et al. 2014).
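Further: failed if final PepcDB status was selected cloned or expressed and not failed if soluble or beyond.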

The data set in a line: label from the status in PepcDB records.
Take “MHILSMIKSQLKLLFNNRLAVFAIILAPILLTFLVSYSSSSNSKTNVYFADQDNTEASRQLVNMLKNNHDLNLISSSESEIKNKVDDDNITVGVLINKGFGYKLQNNKALDITLIEDYDSVDGEKLSDIILSTENTLQKVNLDSKSISRVLSSNESSISNKIIKKINNGSGVKLLYKNLKSSQNVEDKNAQNLIGFLLMFLWFIVIQGFRTLIEEKENNTFNRIKGTPTNYSKYLLSKIIANYIFGMIIIAIILIVGKYGLKSKIINNVGPEIAILSIYLFSIVGLVMIFVPFVKKHQTFTIIGAAIMVLTGLLGGSFFSMDELQLPKAIEIISKFMPETWGIKSLKEVVFNNLSLGSQSQTILVLGIAGIVGLLISTIIVKIIDRTEKNF”: the protein production entry is “failed”. As to “MSLALLLGYELPLTGANAAYGRVFQEAARLQLDRFNAAGGVGGRPVDILYADSRDDADQARTIARAFVDDPRVVGVLGDFSSTVSMAAGSIYGKEGMPQLSPTAAHPDYIKISPWQFRAITTPAFEGPNNAAWMIGDGFTSVAVIGVTTDWGLSSAQAFRKAFELRGGAVVVNEEVPPGNRRFDDVIDEIEDEAPQAIYLAMAYEDAAPFLRALRARGSALPVYGSSALYSPKFIDLGGPAVEGVRLATAFVLGASDPVVVEFVSAYETLYGAIPTLFAAHGYDAVGIMLAAVGRAGPEVTRESLRDALAATDRYAGVTGITRFDPETRETTKILTRLVVREGDFRVIDREGHHHHHH”, the protein production result is given as “not failed”. The same measure for “MRITHLGHSCILVEAAGQRILVDPGNLSRSWRGLTDLDAILVTHRHPDHVDPEHIGALVDANSGAVVRAEEGACHEIPALDADPVAPGDVLQIGEVRIEAVGGRHAVIHRDLEPIGNVGYLIGEGLGTILYHPGDELDETPRGVDVLACPAHAPWAAMKETVDFARSVGARHGFLIHEGLLNGRGWQLSFDRHQEMVP”: “failed”; for “MGGITMTAVVSNRDKINFHEVADHYHSNKIIFGIKFLKNWALERLASCAPVPSWRAKLHKMRGVNIGENVYIGYDVIFDRIHPEMITVGDYAEIGDRCILSAHSRGSLTTRQAYPRSIAPIKIGRGVSVNPGCIITQGVEIGDNSIIGVGSVVSRNISPNSLALGYPAKVIKKLDGVGELQTLEHHHHHH”: “failed”. For “GNQSTSSKGSDTKKEQITVKHQLDKNGTKVPKNPKKVVVFDFGSLDTLDKLGLDDIVAGLPKQVLPKYLSKFKDDKYADVGSLKEPDFDKVAELDPDLIIISARQSESYKEFSKIAPTIYLGVDTAKYMESFKSDAETIGKIFDKEDKVKDELANIDHSIADVKKTAEKLNKNGLVIMANDGKISAFGPKSRYGLIHDVFGVAPADQNIKASTHGQSVSYEYISKTNPDYLFVIDRGTAIGETSSTKQVVENDYVKNVNAVKNGHVIYLDSATWYLSGGGLESMTQMIKEVKDGLEK” the value was “not failed”. Regarding “MARRWTPQRFVMLRRVRVVICVTTVTLASVLAFGVGARKTVALTVNGETTTVTTYAMSVDRLLQEQQVKVKTHDLVESTSSGTLQNHSVVTVRSAYQTTVTIDGQEVPFWTVATSADQLLGFFEANEAEASKITVNIDNVYNKLTGGLVINQNGPVTVIADGKSSVSPNGKLPAASILDSKGIILNKEDRVSVEKDNGETILRVQRVTHDEQTRTKTVPHGTQTIIDASLQPGEAVVRQEGEDGEIQQTYDVTYVDGVEESEKLINEVTTKIAIDQIIAVGPEKTESSDADNADNGQADSGSNDSDSSKSDKKDESDKKDSDSTDKKNDSSEKNDSTSTPTTEPTQTPTPTPTPTQQQQQTQTTTNPSDGCRLYHPSAAQAQTYAAGAAAQYGWTGQHWTNLVKLWNRESSWLWYSENASSGAYGIPQSLPGSKMASFGANWRDDAAVQIDWGLNYIAQRYGNPTKAREHSEQYGWY”, the protein production entry was “failed”. For the sequence “MDKVFAPWRIEWVEREKTNPDVDCVFCAFQAQDDDRANNLVARSDHAFVLLNNYPYNPGHVMVIPHTHTGEYGDLDDKTLLDHGRLKQRTFDALETALSPDAFNAGLNLGGSAAGGSIDDHLHTHVVPRWNGDTNFMPVISDTKVIVEAVEETYDRLYAAFASQDGTTAPEDGAVRIE”, the protein production result was “failed”. For the sequence “MGPINLLWLQAAGCGGCTMAILEQGRAGWFAELASFDINLLWHPSVSEATADDVIDLLAAVSAARTPLSVLVVEGAVLRGPNGSGRFNMLGGTGRSMASWISELAPRADYVVAVGSCSAYGGVPAAGHNPTDASGLQFLGTEPGGVLGAAFRSKAGLPVINIAGCAPHPGWIAETLAALALGEFSAAALDSFARPKFFAEHLAHHGCARNEFYEFKASAEAMSQRGCLMEHLGCKATQAVGDCNQRSWNGGGSCTQAGYPCIACTSPGFEAAHNYMTTAKVAGIPVGLPLDMPKAWFVALAALSKSATPKRVRANATADHVVVPPTPSGHRRK”, the protein production result was “failed”.

Regarding “MTLWQLIKAEIRSVLTNPVVTLTVFGGVVFYSFLYPLPYAQQTPREQPIAVVNLDGSQTSLKLERMVDATPQVKIVSRLHTVEDAKQAFLNREITGFLVIPEHFYKDVMLGKSPTLAYAADASYFLVYGTVVEGLAQAGGTLGAQVKVSKMVIEGVPLSLASHNYSAIKLNMKPTFNPTMGYIEYVVPAVFVLILQQTLIMAVGLQTGSQRHGRGYWSQVSTGSLLLVRTLVFIAIYYLLSAYYFGFSFERLSVNHIAKAGELLTMLFPFLLGCCGLGFWLGYLLPRRELVTLVVLVSSMPLIFLAGFIWPVESIPAPLLWIADLSPSTWSIKGFLALNQMGATWQQVAKHWTALWLLVALWGGVAYWIAKRNNKPVVTESLS”, the protein production result is reported as “failed”. As to “MAKPVVETPLMRQYFQIKQKHPDAILLFRVGDFYETFSEDAIVASEILGITLTRRANGAAQFVELAGFPHHALDTYLPKLVRAGKRVAICDQLEDPKKTKTLVKRGITELVTPGVSTNDNVLSHKENNFLAAVSCGKEVFGISLLDISTGEFMAGQGNADYVEKLLTNYRPKEILVERSERSRFNDLFHWSGFIFDMEDWAFSSENNRLRVLKHFDLKSLKGFGLEELSMAVTAAGAVLNYLDLTQHHQLQHITSLSRLDENRYVRLDKFTVRSLELLSPMNEGGKSLLDIIDHTITPMGARRIRQWIVFPLKDPARIQARQRVVEFFFRHPEERAIIAEHLTEIGDLERLVTKGAMGRISPREMVQLRVALQALEPIKEVCTHADEENLRTLGGKLELCKELRDKILREVMPDAPAALGRGPVIAHGVDATLDELRALAYSGKDYLIKLQQQEIERTGIPSLKVAYNNVFGYYIEVRNTHKDKVPAEWIRKQTLVSAERYITEELKEYEAKILGAEEKIAALEGQLYALLVAELQRYVAPLQQDSQAVASLDCLLSFAESARRYRFICPVVDESFTIDIKAGRHPVIEQQLPADEPYIANDIYLDTDRQQVIIVTGPNMSGKSALLRQTALISLMAQIGSFVPAESARIGMVDSIFTRVGASDNISMGESTFMVEMQEASNILNNLTPRSLVLFDELGRGTSTYDGISIAWSIVEYIHDNPKAHPRTLFATHYHELNELEGQLDRVHNFNVSAREVDGKMLFLRKLEPGGSAHSFGIQVARLGGMPHHIVQRATDILHRLEQEREKIEEEEPKTKDTKRGPSEKVKNASPTLPRDEKGRSIDGYQLSFFQLDDPVLSQIREEILDLNIDNLTPLEALNKLNDIKRILRGY”, the protein production entry was “failed”. For “MVPLESSTLFGVYGGFTDSMMMRETTTNNQDPSGDTCSVSDPAPGSTDYYNISSSPVKDDGTAPKNDVVCSINVDDNKDKSWLRLGIGPEENTDGSYKLQRCCSKNGSGRENSLELSLFSSSSTAVSSSIDHLPTQPLQLPYHHDQLLTMRGPSLVYNHQLMKPQTLLNRGFSFPSSKPWIPQYMAPFRPSSLSDRDVTNNNSLSRSCCVDEGGAGPSSEFRVLDPPRRPHSGLWFLLQASQFQ” the value was “failed”; for “MVLLIVDGIIVAISAIAFSPDTVMYSILSLYVVSLTIDKMMVGLNSSRNLLIISQKSDQILNYITNGADRGATKIPVLGGHTGHSQNMIMTTLSTHEVPKVQEEIQKIDETAFIVIIPASTVMGRGFSLQKDYKSVPNDFINPL”, “failed”; for “MALEPAEIFEKVSPSVWEVRVIGPDGKGLSMGSAVVIGDGVVITNCHVLRGGKQVWLKRGNANFGARLQYPDVERDLCQLRVADFHYPPVTLAPGSALVTGQKVYAIGNPLGLELTISEGLISSLRTDDDGRLKSVQTSAAISRGSSGGGLFDANGRLIGITDHQVVLTLGQNLNFAIPADWIADVPARAQKALAARAAAASAVVASTPAPQSAAPTPAPAPAPRHQGELGPNQQTGFSVYLQKTWPKAFVAADGDHYYYWTGKNAELYALSACQERWQNCSVYARNNTVVEPVEGTGERPGAAR”, “failed”. With “MSLKVHHIGYAVKNIDSALKKFKRLGYVEESEVVRDEVRKVYIQFVINGGYRVELVAPDGEDSPINKTIKKGSTPYHICYEVEDIQKSIEEMSQIGYTLFKKAEIAPAIDNRKVAFLFSTDIGLIELLEKEGHHHHHH”, the protein production entry is given as “not failed”. “NKYNKIANELIKIIGEDNIISITHCATRLRVMVKDREIINDKKVEKVDEVKGVFFTSGQYQIILGTGIVNKVYAEVEKMGLKTLSKKEQDEL”: the protein production entry is reported as “not failed”.

For “IKENAAQEVLEVQKVIDRLADNGQKALKAFESYNQEQVDNIVHAMALAGLDQHMPLAKLAVEETGRGLYEDKCIKNIFATEYIWNNIKNNKTVGVINEDTQTGVIEIAEPVGVVAGVTPVTNPTSTTLFKAIIAIKTRNPIIFAFHPSAQRCSSEAAKVVYDAAVAAGAPEHCIQWVEKPSLEATKQLMNHDKVALVLATGGAGMVKSAYSTGKPALGVGPGNVPAYIDKTAKIKRSVNDIILSKSFDQGMICASE”, the protein production result was “failed”.

“MCYASMEMSAPIRFGTEGFRGVIAREFTFATLHRLAEAYGRHLLERGGGLVVVGHDTRFLADAFARALSGHLAGMGLKVVLLKGPVPTPLLSFAVRHLKAAGGAMLTASHNPPQYLGVKFKDATGGPIAQEEAKAIEALVPEEARALEGAYETLDLREAYFEALKAHLDLKALSGFSGVLYHDSMGGAGAGFLKGFLRHVGLEIPVRPIREEPHPLFHGVNPEPIPKNLGVTLAVLGPETPPSFAVATDGDADRVGVVLPGGVFFNPHQVLTTLALYRFRKGHRGRAVKNFAVTWLLDRLGERLGFGVTTTPVGFKWIKEEFLKGDCFIGGEESGGVGYPEHLPERDGILTSLLLLESVAATGKDLAEQFKEVEALTGLTHAYDRLDLPLKAPLDLTPFREPRPLAGLTPKGVDTLDGVKWLYEEAWVLFRASGTEPVVRIYVEAQSPELVRALLEEARKLVEG”: the protein production entry was “not failed”. Consider “MLSYKHSNATLPILWGEAKRGDFDDLDKAFTQLLLTIGKHRLYTHHTPPYLCAFNAFKMEFIAFDDTITSFFYKSDIDFSITPSNHNTEGFKHALDAFKAMSKSHKFVFDFKTQSQECKEFIKNRLNSSHLLSKIQIDKNNFFTIYQKWLEIVKPTIDINWEVAKTKDILDADYYLADLLSDGDKTIIEKLHTILRSSHYKLNRGVNELGKMDFMEVGFTDSQQAHQEFWSVYERPPKREFQASILERRDLLVPSDVRERKGAFFTPKIWVEKSQEYLAKALGQDYQEDCIIWDCAGGTGNLLRGLLNKANLYLSTLDHNDVAIVKDLAAKNHLKLLENHVFQFDFLNDDFFSDKTPKSLQEILKDKEKRKKLIIYINPPYAEAGNKSKMSGTGEHKAKVARDNLICEKYKNELGKANNEVFAQFFMRIYKELNGVILASFSTLKNLQGSNFKKFREIFKAKFLEGFMVPADTFDNVRGQFPIGFLVWDTSSILPKENPLNLGGNSKEEKQNSNLILDQDNLKDNPLKERFCLLDINAPNRKMCSQSRTRTKGTQKHSTAAPFETPLHTVSLEIFDSFGGFLGSKKIYTHTIDKMLTLADYLQKFQPTKRDTIFGYLDPGRNSFQHQNLIHISIIDKSKQSHVKYFPIIATTILLVSVFFSIRHCIKATWQNDRDQFYAPYDDAFQDDSEFKNNCLIFMLFHTQNRITTAQGTNHFIPFSETEVNAKERYSSHALLEFLKGEIKELKENDSLFLSAKKENKPLKFSPSASKVFDASREVYRYYHTQDFTNRPYNANASLYDIKEFFQGRNKQGKLNLPAKAKDEYYKQLYANLQDALKDLAKEIQPKVYEYGFLRE”, for which the protein production entry was “failed”.
